Reference: article PMC11938149

Target: T1, Bacillus subtilis FtsZ^1-382 (for light scattering) (Bacillus subtilis) (UniProt P17865)
T1 sequence: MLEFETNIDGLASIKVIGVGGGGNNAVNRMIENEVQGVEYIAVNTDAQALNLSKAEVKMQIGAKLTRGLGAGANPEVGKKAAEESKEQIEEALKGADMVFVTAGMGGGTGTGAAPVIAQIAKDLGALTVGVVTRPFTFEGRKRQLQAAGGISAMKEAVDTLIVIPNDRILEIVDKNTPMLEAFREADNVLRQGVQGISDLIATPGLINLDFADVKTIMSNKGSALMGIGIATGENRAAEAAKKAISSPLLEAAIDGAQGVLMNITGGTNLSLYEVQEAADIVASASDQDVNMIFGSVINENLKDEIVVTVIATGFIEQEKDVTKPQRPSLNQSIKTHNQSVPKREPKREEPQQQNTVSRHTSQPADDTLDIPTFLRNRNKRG

B1: Bacillus subtilis MinC^1-224 wild type (for light scattering) (natural protein)
chain: MKTKKQQYVTIKGTKNGLTLHLDDACSFDELLDGLQNMLSIEQYTDGKGQKISVHVKLGNRFLYKEQEEQLTELIASKKDLFVHSIDSEVITKKEAQQIREEAEIISVSKIVRSGQVLQVKGDLLLIGDVNPGGTVRAGGNIFVLGSLKGIAHAGFNGNNQAVIAASEMLPTQLRINHVLNRSPDHIQKGNEMECAYLDTDGNMVIERLQHLAHLRPDLTRLEG
In the case of B1, the inhibition of FtsZ polymerization by light scattering (5 uM FtsZ, 15 uM MinC, HMK buffer pH 7.7, 100 mM potassium) is reported as 50%.
